Assays:
[1] = target: IFN-αR2 (IFNAR2), type I interferon receptor subunit on cells (human) (UniProt P48551)
[2] = target: IFN-αR1 (IFNAR1), type I interferon receptor subunit on cells (human) (UniProt P17181)

- growth inhibition of Daudi cells, IC50 [1]: 100 µM
- growth inhibition of Daudi cells, IC50 [2]: 100 µM
Substance: Histidine (His)-tagged IFN-ε (IFN-ε^His), recombinant, expressed in E. coli (ligand)

— patent US6299877
